For 20 molecules, Bmax and EC50 results are on record in patent US20240002497A1 (Merck Sharp & Dohme, published 2024).

What is called EC50 is the concentration that produces a half-maximal response.

Assay [1] addresses T1, rhNav1.7α + β1-β2-β3 (rhesus monkey).
T1 construct: also called rhNav1.7-beta1-beta2-beta3; rhNav1.7-β1-β2-β3
Kind of assay: binding FACS, CHO FlpIn. How it is done: (§1) Binding of the ISVDs to cell-expressed Nav1.7α was detected via murine anti-Flag (Sigma, catalog #F1804). Briefly, cells were resuspended in FACS buffer (PBS, 10% FBS, NaN₃) and transferred to a 96-well V-bottom plate at 1×10^5 cells/well. Purified FLAG3-tagged ISVD was diluted in FACS buffer and added to the cells for 30 minutes at 4° C. […] Prior to the read-out, the samples were resuspended in 1 μg/mL propidium iodide (Sigma, catalog #P4170) to exclude dead cells. Between each step, the cells were centrifuged for 5 minutes at 200 grams and washed with 100 μL/well FACS buffer.

For assay [2], the target named is T2, huNav1.7α + β1-β2-β3 (human, UniProt Q15858 1-1988; A5A6L6 19-218; O60939 30-215; Q2KI11 23-215).
T2 construct: also called huNav1.7-beta1-beta2-beta3; huNav1.7-β1-β2-β3
Kind of assay: binding FACS, CHO FlpIn. As for the experimental part: as §1

Assay [3] deals with T3, rhNav1.7α + β1-β2-β3 (rhesus Nav1.7α co-expressed with Navβ1, Navβ2 and Navβ3 on cells) (rhesus monkey (α subunit); β subunits …).
T3 construct: also called rhNav1.7-beta1-beta2-beta3; CHO FlpIn rhNav1.7α + β1-β2-β3
The assay is described as follows: binding FACS, CHO FlpIn cells. The procedure, abridged: (§2)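 Cells are first suspended in FACS buffer at 1×10^5 per well. Next, FLAG3-tagged ISVD is added for 30 minutes at 4° C, and binding is then detected with murine anti-Flag. Finally, samples go into 1 μg/mL propidium iodide before flow cytometry.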

Assay [4] addresses T4, huNav1.7α + β1-β2-β3 (human Nav1.7α co-expressed with human Navβ1, Navβ2 and Navβ3 on cells) (human).
T4 construct: also called huNav1.7-beta1-beta2-beta3; CHO FlpIn huNav1.7α + β1-β2-β3
The assay is described as follows: binding FACS, CHO FlpIn cells. The procedure, abridged:
as §2

B1: F010302346 (VHH)
VHH: EVQLVESGGGVVQPGGSLRLSCAASHRAFIRDVFTGWYRQAPGKQRELVARIYESGNTQYADSAKGRFTISRDNAKKTVYLQMNSLRPEDTALYYCLFSGTISTGREYRSGDYWGQGTLVTVSS
With B1, in assay [1], the Bmax came to 99% and the EC50 came to 12 nM. In assay [2], the Bmax was 100% and the EC50 was found to be 5 nM.

B2: F010302360 (VHH)
VHH: EVQLVESGGGVVQPGGSLRLSCAASHRQFIRDVFTGWYRQAPGKQRELVARIYNEGNTQYADSVKGRFTISRDNAKKTVYLQMNSLRPEDTALYYCLFSGTISTGREYRSGDYWGQGTLVTVSS
Consider B2, for which, in assay [1], the Bmax is 58% and the EC50 was determined as 15 nM. In assay [2], the Bmax was determined as 100% and the concentration for a half-maximal effect (EC50) was 3.5 nM.

B3: F010302361 (VHH)
VHH: EVQLVESGGGVVQPGGSLRLSCAASHRQFIRDVFTGWYRQAPGKQRELVARIYEGGNTQYADSVKGRFTISRDNAKKTVYLQMNSLRPEDTALYYCLFSGTISTGREYRSGDYWGQGTLVTVSS
Take B3: in assay [1], the Bmax was determined as 92% and the EC50 was 11 nM. Further, in assay [2], the Bmax worked out at 100% and the EC50 amounted to 4.8 nM.

B4: F010302362 (VHH)
VHH: EVQLVESGGGVVQPGGSLRLSCAASHRAFIRDVFTGWYRQAPGKQRELVARIYESGNTQYADSVKGRFTISRDNAKKTVYLQMNSLRPEDTALYYCLFSGTISTGREYRSGDYWGQGTLVTVSS
As to B4, the values for the Bmax in assay [1] and in assay [2] were 89% and 100%, respectively. Moreover, the results for the concentration for a half-maximal effect (EC50) in assay [1] and in assay [2] were 14 nM and 5.4 nM, respectively.

B5: F010302353 (VHH)
VHH: EVQLVESGGGVVQPGGSLRLSCAASHRQFIRDVFTGWYRRAPGKQRELVARIYEGGNTQYADSVKGRFTISRDNAKKTVYLQMNSLRPEDTALYYCLFSGTISTGREYRSGDYWGQGTLVTVSS
As to B5, the Bmax came out at 93% in assay [1] and 100% in assay [2]. In addition, the EC50 in assay [1] was 7.9 nM; in assay [2], 4.2 nM.

B6: F010302356 (VHH)
VHH: EVQLVESGGGVVQPGGSLRLSCAASHRAFIRDLFTGWYRRAPGKQRELVARIYESGNTNYADSVKGRFTISRDNAKKTVYLQMNSLRPEDTALYYCLFSGTISTGREYRSGDYWGQGTLVTVSS
B6: in assay [1], the Bmax stood at 81% and the EC50 amounted to 12 nM. Also, in assay [2], the Bmax is 100% and the 50% effective concentration (EC50) was found to be 5.3 nM.

B7: F010302354 (VHH)
VHH: EVQLVESGGGVVQPGGSLRLSCAASHRAFIRDVFTGWYRRAPGKQRELVARIYESGNTQYADSVKGRFTISRDNAKKTVYLQMNSLRPEDTALYYCLFSGTISTGREYRSGDYWGQGTLVTVSS
Turning to B7, in assay [1], the Bmax turned out to be 96% and the concentration giving a half-maximal response (EC50) amounted to 7.9 nM. In assay [2], the Bmax stood at 100% and the concentration for a half-maximal effect (EC50) came to 4.2 nM.

B8: F010302358 (VHH)
VHH: EVQLVESGGGVVQPGGSLRLSCAASSRQFIRDVFTGWYRQAPGKQRELVARIYNEGNTQYADSVKGRFTISRDNAKKTVYLQMNSLRPEDTALYYCLFSGTISTGREYRSGDYWGQGTLVTVSS
For B8, in assay [1], the Bmax amounted to 37% and the half-maximal effective concentration (EC50) is 37 nM. Also, in assay [2], the Bmax amounted to 100% and the EC50 worked out at 4.5 nM.

B9: F010302350 (VHH)
VHH: EVQLVESGGGVVQPGGSLRLSCAASSRQFIRDVFTGWYRRAPGKQRELVARIYNEGNTQYADSVKGRFTISRDNAKKTVYLQMNSLRPEDTALYYCLFSGTISTGREYRSGDYWGQGTLVTVSS
B9: in assay [1], the Bmax came to 46% and the half-maximal effective concentration (EC50) came out at 15 nM. In assay [2], the Bmax was 100% and the EC50 amounted to 3.5 nM.

B10: F010302352 (VHH)
VHH: EVQLVESGGGVVQPGGSLRLSCAASHRQFIRDVFTGWYRRAPGKQRELVARIYNEGNTQYADSVKGRFTISRDNAKKTVYLQMNSLRPEDTALYYCLFSGTISTGREYRSGDYWGQGTLVTVSS
Take B10: in assay [1], the Bmax came to 60% and the EC50 worked out at 11 nM. Moreover, in assay [2], the Bmax came to 100% and the concentration giving a half-maximal response (EC50) worked out at 3.6 nM.

B11: F010302364 (VHH)
VHH: EVQLVESGGGVVQPGGSLRLSCAASHRAFIRDLFTGWYRQAPGKQRELVARIYESGNTNYADSVKGRFTISRDNAKKTVYLQMNSLRPEDTALYYCLFSGTISTGREYRSGDYWGQGTLVTVSS
Take B11: in assay [1], the Bmax was found to be 74% and the EC50 is 17 nM. In addition, in assay [2], the Bmax came to 100% and the EC50 came to 7.2 nM.

B12: F010302351 (VHH)
VHH: EVQLVESGGGVVQPGGSLRLSCAASSRQFIRDVFTGWYRRAPGKQRELVARIYESGNTQYADSVKGRFTISRDNAKKTVYLQMNSLRPEDTALYYCLFSGTISTGREYRSGDYWGQGTLVTVSS
With B12, in assay [1], the Bmax amounted to 72% and the EC50 is 15 nM. For the same molecule, in assay [2], the Bmax is 100% and the half-maximal effective concentration (EC50) was found to be 5.6 nM.

B13: F010302348 (VHH)
VHH: EVQLVESGGGVVQPGGSLRLSCAASHRAFIRDLFTGWYRQAPGKQRELVARIYESGNTNYADSAKGRFTISRDNAKKTVYLQMNSLRPEDTALYYCLFSGTISTGREYRSGDYWGQGTLVTVSS
As to B13, the Bmax was 95% in assay [1] and 100% in assay [2]. Moreover, the 50% effective concentration (EC50) was found to be 14 nM in assay [1] and 6.7 nM in assay [2].

B14: F010302359 (VHH)
VHH: EVQLVESGGGVVQPGGSLRLSCAASSRQFIRDVFTGWYRQAPGKQRELVARIYESGNTQYADSVKGRFTISRDNAKKTVYLQMNSLRPEDTALYYCLFSGTISTGREYRSGDYWGQGTLVTVSS
Turning to B14, in assay [1], the Bmax stood at 66% and the concentration giving a half-maximal response (EC50) was determined as 24 nM. In assay [2], the Bmax was found to be 100% and the EC50 is 6.4 nM.

B15: F010302312 (VHH)
VHH: EVQLVESGGGVVQPGGSLRLSCAASGPVFNINRMAWYRQAPGKQRELVAYVTPTGDISYADSVKGRFTISRDGSKRVYLQMNSLRPEDTALYYCRALLQPDSYSITRTYWGQGTLVTVSS
notes: also called F0103387G04(L11V, A12V, K33R, R39Q, S50Y, S56D, T60A, W78V, S79Y, T83R, V89L, N93R, N100cI)
As to B15, the Bmax in assay [3] and in assay [4] was 100% each time. Also, the figures for the concentration giving a half-maximal response (EC50) in assay [3] and in assay [4] were 18 nM and 24 nM, respectively.

B16: F010301843 (VHH)
VHH: EVQLVESGGGVVQPGGSLRLSCAASGPVFNINRMAWYRQAPGKQRELVAYVTPTGDISYTDSVKGRFTISRDNSKRWSLQMNSLRPEDTALYYCRALLQPDSYSNTRTYWGQGTLVTVSS
notes: also called F0103387G04(L11V, A12V, K33R, R39Q, S50Y, S56D, G73N, T83R, V89L, N93R)
B16: the Bmax in assay [3] and in assay [4] was 100% each time. Moreover, the EC50 stood at 9.3 nM in assay [3] and 18 nM in assay [4].

B17: F010301842 (VHH)
VHH: EVQLVESGGGVVQPGGSLRLSCAASGPVFNINRMAWYRQAPGKQRELVAYVTPTGDISYADSVKGRFTISRDGSKRWSLQMNSLRPEDTALYYCRALLQPDSYSNTRTYWGQGTLVTVSS
notes: also called F0103387G04(L11V, A12V, K33R, R39Q, S50Y, S56D, T60A, T83R, V89L, N93R)
Turning to B17, in assay [3], the Bmax came out at 100% and the half-maximal effective concentration (EC50) is 7.9 nM. In assay [4], the Bmax was determined as 100% and the half-maximal effective concentration (EC50) was found to be 15 nM.

B18: F010301844 (VHH)
VHH: EVQLVESGGGVVQPGGSLRLSCAASGPVFNINRMAWYRQAPGKQRELVAYVTPTGDISYTDSVKGRFTISRDGSKNWSLQMNSLRPEDTALYYCRALLQPDSYSNTRTYWGQGTLVTVSS
notes: also called F0103387G04(L11V, A12V, K33R, R39Q, S50Y, S56D, R76N, T83R, V89L, N93R)
With B18, in assay [3], the Bmax was 100% and the half-maximal effective concentration (EC50) amounted to 11 nM. In assay [4], the Bmax turned out to be 100% and the EC50 is 23 nM.

B19: F010301841 (VHH)
VHH: EVQLVESGGGVVQPGGSLRLSCAASGPVFNINRMAWYRQAPGKQRELVAYVTPTGDISYTDSVKGRFTISRDGSKRWSLQMNSLRPEDTALYYCRALLQPDSYSNTRTYWGQGTLVTVSS
notes: also called F0103387G04(L11V, A12V, K33R, R39Q, S50Y, S56D, T83R, V89L, N93R)
For B19, in assay [3], the Bmax was 100% and the EC50 was found to be 7.6 nM. In assay [4], the Bmax worked out at 100% and the concentration for a half-maximal effect (EC50) was determined as 14 nM.

B20: F010301656 (VHH)
VHH: EVQLVESGGGLAQPGGSLRLSCAASGPVFNINRMAWYRRAPGKQRELVAYVTPTGDISYTDSVKGRFTISRDGSKRWSLQMNSLTPEDTAVYYCRALLQPDSYSNTRTYWGQGTLVTVSS
notes: also called F0103387G04(K33R, S50Y, S56D, N93R)
In the case of B20, the Bmax in assay [3] and in assay [4] was 100% each time. For the same molecule, the EC50 worked out at 8 nM in assay [3] and 17 nM in assay [4].
